Test results taken from article PMC9776393, “Gold Nanoparticles-MWCNT Based Aptasensor for Early Diagnosis of Prostate Cancer”.

Molecular target: prostate-specific antigen (PSA) (human (semen), UniProt P07288 25-261)
Test: electrochemical aptasensor (DPV); MCH-blocked MWCNT/AuNP electrode; LoD 1 pg/mL, linear 1-100 ng/mL (abstract) or 0.001-100 ng/mL (Table 2); PBS pH 7.2, [Fe(CN)6]3-/4- redox probe, 5 min binding; aptamer heated to 95 C and cooled, immobilized at room temperature with MgCl2 and NaCl; binding temperature not stated
Details: protein: commercial

prostate-specific antigen (PSA), sequence (P07288 25-261): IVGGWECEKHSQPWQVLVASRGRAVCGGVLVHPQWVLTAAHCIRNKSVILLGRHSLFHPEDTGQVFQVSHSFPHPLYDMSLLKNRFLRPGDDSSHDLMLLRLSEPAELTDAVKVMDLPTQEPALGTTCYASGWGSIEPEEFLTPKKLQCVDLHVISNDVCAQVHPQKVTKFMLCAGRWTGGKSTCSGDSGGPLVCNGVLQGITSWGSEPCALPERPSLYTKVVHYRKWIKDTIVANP

Binder: TTTTTAATTAAAGCTCGCCATCAAATAGCTTT (ssDNA, 5'-HS-(CH2)6 thiol) [PSA aptamer]
- binding result: binds
